Source: patent publication US6863888 (University of California, dated 2005)
Each block holds one binder with its values, some of them ahead of it.

B1: epitope-tagged JNK1 (Flag epitope Asp-Tyr-Lys-Asp-Asp-Asp-Asp-Lys inserted between codons 1 and 2), expressed in COS cells (enzyme)
chain: MDYKDDDDKSRSKRDNNFYSVEIGDSTFTVLKRYQNLKPIGSGAQGIVCAAYDAILERNVAIKKLSRPFQNQTHAKRAYRELVLMKCVNHKNIIGLLNVFTPQKSLEEFQDVYIVMELMDANLCQVIQMELDHERMSYLLYQMLCGIKHLHSAGIIHRDLKPSNIVVKSDCTLKILDFGLARTAGTSFMMTPYVVTRYYRAPEVILGMGYKENVDLWSVGCIMGEMVCHKILFPGRDYIDQWNKVIEQLGTPCPEFMKKLQPTVRTYVENRPKYAGYSFEKLFPDVLFPADSEHNKLKASQARDLLSKMLVIDASKRISVDEALQHPYINVWYDPSEAEAPPPKIPDKQLDEREHTIEEWKELIYKEVMDLEERTKNGVIRGQPSPLAQVQQ
notes: Tag inserted between codons 1 and 2 of the JNK1 cDNA in pCMV5; also called immunopurified JNK1
B4: c-Jun N-terminal protein kinase (JNK), 46 kD form, endogenous kinase from cell extracts (enzyme)
chain: MSRSKRDNNFYSVEIGDSTFTVLKRYQNLKPIGSGAQGIVCAAYDAILERNVAIKKLSRPFQNQTHAKRAYRELVLMKCVNHKNIIGLLNVFTPQKSLEEFQDVYIVMELMDANLCQVIQMELDHERMSYLLYQMLCGIKHLHSAGIIHRDLKPSNIVVKSDCTLKILDFGLARTAGTSFMMTPYVVTRYYRAPEVILGMGYKENVDLWSVGCIMGEMVCHKILFPGRDYIDQWNKVIEQLGTPCPEFMKKLQPTVRTYVENRPKYAGYSFEKLFPDVLFPADSEHNKLKASQARDLLSKMLVIDASKRISVDEALQHPYINVWYDPSEAEAPPPKIPDKQLDEREHTIEEWKELIYKEVMDLEERTKNGVIRGQPSPLAQVQQ

Legend:
[1] = target: T1, GSTcJun(wt), glutathione-S-transferase fused to c-Jun AA 1-223 (human, UniProt P08515 1-218 = GST); test: immunopurified JNK1 on GST-Jun fusion proteins bound to GSH-agarose, solid-phase kinase assay
T1 construct: Expressed in E. coli, held on GSH-agarose beads; also called human GSTcJun
Protocol: (§1) Clarified cell extracts were incubated with GST fusion proteins immobilized on GSH-agarose beads. […] The reaction was terminated after 10 mins at 30° C. and the products were resolved by SDS-PAGE. The incorporation of [^32P]phosphate was visualized by autoradiography and quantitated with a phosphorimager and ImageQuant software (Molecular Dynamics Inc., Sunnyvale, Calif.).
(§2) Mock-transfected COS cells were used as a control. After 1 hour, the cells were lysed and subjected to immunoprecipitation with the M2 monoclonal antibody. […] The phosphorylated proteins were resolved by SDS-PAGE and detected by autoradiography.

[2] = target: B4; test: GSTcJun deletion mutants on GSH-agarose, UV-irradiated HeLa extract; solid-phase kinase assay and eluted-kinase assay
[3] = target: B1; test: immunopurified JNK1 on GST-Jun fusion proteins bound to GSH-agarose, solid-phase kinase assay
Protocol: as §1, §2

[4] = target: GAL4-cJun(1-223), GAL4 DNA binding domain fused to c-Jun AA 1-223 (yeast; human, UniProt P04386 1-147); test: cell-based or functional assay
[5] = target: B1; test: COS cell lysates on GST-cJun(1-79) immobilized on GSH-agarose beads, Western blot with M2 antibody
Protocol: COS cell extracts (250 µg) were incubated with 20 µg GST or GST-cJun immobilized on 10 µl GSH-agarose at 4° C. for 5 hours.
Mock-transfected COS cells were used in control experiments (lanes 1 & 2). The cells were either untreated (lanes 1 & 3) or irradiated with 40 J/m^2 UV-C (lanes 2, 4, & 5). Cell lysates were prepared and incubated with GST-cJun(1-79) (lanes 1–4) or GST (lane 5) immobilized on GSH-agarose beads.

Binder: B1
binding result [1]: binds

B3: GSTcJun(33-223), GST fused to c-Jun AA 33-223 (other)
chain: ILKQSMTLNLADPVGSLKPHLRAKNSDLLTSPDVGLLKLASPELERLIIQSSNGHITTTPTPTQFLCPKNVTDEQEGFAEGFVRALAELHSQNTLPSVTSAAQPVNGAGMVAPAVASVAGGSGSGGFSASLHSEPPVYANLSNFNPGALSSGGGAPSYGAAGLAFPAQPQQQQQPPHHLPQQMPVQHPRLQ
notes: also called removal of AA 1-32; not shown: GST carrier (pGEX3X, Pharmacia) and the vector junction residues
binding result [3]: binds

Binder: B4
Ha-Ras responsiveness, CAT activity of 5xGAL4-Elb-CAT reporter in F9 cells [4]: 19 fold induction
UV responsiveness, CAT activity of 5xGAL4-Elb-CAT reporter in F9 cells [4]: 7.5 fold

More lines, now with the values ahead:

binding result [2]: no binding
binding result [3]: no binding
B2: GST-cJun(43-223), GST fused to c-Jun AA 43-223 (other)
chain: ADPVGSLKPHLRAKNSDLLTSPDVGLLKLASPELERLIIQSSNGHITTTPTPTQFLCPKNVTDEQEGFAEGFVRALAELHSQNTLPSVTSAAQPVNGAGMVAPAVASVAGGSGSGGFSASLHSEPPVYANLSNFNPGALSSGGGAPSYGAAGLAFPAQPQQQQQPPHHLPQQMPVQHPRLQ
notes: also called removal of AA 1-42; deletion of residues 1-42; not shown: GST carrier (pGEX3X, Pharmacia) and the vector junction residues

binding result [5]: binds
B5: GST-cJun(1-79), GST fused to c-Jun AA 1-79 (other)
chain: MTAKMETTFYDDALNASFLPSESGPYGYSNPKILKQSMTLNLADPVGSLKPHLRAKNSDLLTSPDVGLLKLASPELERL
notes: also called GST fusion protein containing AA 1-79 of c-Jun; not shown: glutathione-S-transferase (GST) carrier encoded by pGEX3X (Pharmacia)
